± gives the standard error. This sample holds only a part of the variants without activity.
B1: glmS ribozyme (parent)
chain: AUAAAAGCGCCAGAACUACAGAAAUGUAGUUGACGAGGAGGAGGUUUAUCGAAUUUUCGGCGGAUGCCUCCAAA

Variants of: B1
Test: self-cleavage kobs at 640 uM GlcN6P; higher = faster cleavage; RNA array
Settings: with glucosamine-6-phosphate
How it was run: (§1)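 The measurements used barcoded ribozyme variants on sequenced MiSeq chips, transcribed in situ by E. coli RNA polymerase and tracked at 37 °C with a hybridised Cy3 probe. Glucosamine-6-phosphate, 40 μM to 10 mM in HEPES/KCl/Mg(OAc)2 buffer, was flowed in while tiles were imaged over ~14 h. Baseline-normalised signals, also normalised to non-cleaving reference variants, gave per-tile medians that were fit to one- or two-exponential decays for kobs. kcat and KM resulted from weighted Michaelis–Menten fits across concentrations.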

Row | Variant | self-cleavage kobs at 640 uM GlcN6P
1 | AUAAAAGUGCCAGAAGUACAGAAAUGUAGUUGACGAGGAGGAGGUUUAUCGUAUUUUCGGCGGAGACCUCCAAA [C8U C16G A52U U65G G66A] | < 1e-05 s⁻¹
2 | AUAAAAGGGCCAGAACUACAGAAAUGUAGUUGACGAGGAGGAAGUUUAUCGAAUUUUCGGCGGAUGCCUCCAAA [C8G G43A] | < 1e-05 s⁻¹
3 | AUAAAAGUGCCAGACCUACAGAAAUGUAGUUGACCAGGAGGAGGUUUAUCGAAUUUUCGGCGGAUGCUUCCAAA [C8U A15C G35C C68U] | < 1e-05 s⁻¹
4 | AUAAAAGGGCCAGAACUACAGAAAUGUAGUUGACGAGGAGGAGGUUUAUCGAAUUUGCAGCGGAUGCCUCCAAA [C8G U57G G59A] | < 1e-05 s⁻¹
5 | AUAAAAGAGCCAGAACUACAGAAAUGUAGUUGACGAGGAGGAGGUUUAUCGAAUGUUCGGCGUAUGCCUCCAAA [C8A U55G G63U] | < 1e-05 s⁻¹
6 | AUAAAAGGGCGAGCACUACAGAAAUGUAGUUGACGAGGGGGAGGUUUAUGGAAUUUUCGGCGGAUGCCUCCAAA [C8G C11G A14C A39G C50G] | 8.19e-05 ± 2.8e-05 s⁻¹
7 | AUAAAAGGGCCAGAACUACAGAAAUGUAGUGGACGAGGAGGAGGUUUAUGGAAUUUUCGGCGGAUGCCUCCAAA [C8G U31G C50G] | 7.77e-05 ± 3.6e-05 s⁻¹
8 | AUAAAAGGGCCAUAACUACAGAAAUGUAGUUGACGAGGAGGAGGUUUAUCGAAUCUUUGGCGGAUGCCUCCAAA [C8G G13U U55C C58U] | < 1e-05 s⁻¹
9 | AUAAAAGUGCCAGCACUACAGAAAUGUAGUUAACGAGGAGGAGGUUUAUCGAAUUUUCGGCGGAUGCCUCCAAA [C8U A14C G32A] | < 1e-05 s⁻¹
10 | AUAAAAGGGCCAGAACUACAGAAAUGUAGUUGACGAGGAGGAAGUUUAUCGAAUUUUCGGCGGAUGACUCCAAA [C8G G43A C67A] | < 1e-05 s⁻¹
11 | AUAAAAGGGUCAGAACUACAGAAAUGUAGUUGACGAGGAGGAGGUUUUUCGAAUUUUCGGCGGAUGCCUCCAAA [C8G C10U A48U] | < 1e-05 s⁻¹
12 | AUAAAAGUGCCAGGACUACAGAAAUGUAGUUGACGAGGGGGAGGUUUAUCGAUGUUUCGGCGAAUGCCUCCAAA [C8U A14G A39G A53U U54G G63A] | < 1e-05 s⁻¹
13 | AUAAAAGAGCCAGAACUACAGAAAUGUAGUUGACGAGGAGGAGGUUUAUCGAAUGUUCGGCGGUUGCCUCCAAA [C8A U55G A64U] | < 1e-05 s⁻¹
14 | AUAAAAGUGCCAGACCUACAGAAAUGUAGUUUACGAGGAGGAGGUUUAUCGAAUUUUCGGCGGAUGCCUCCAAA [C8U A15C G32U] | < 1e-05 s⁻¹
15 | AUAAAAGAGCCAGAACUACAGAAAUGUAGUUAACGAGGAGGAGGUUUAUCGAAUUUUCGGCGGAUUCCUCCAAA [C8A G32A G66U] | < 1e-05 s⁻¹
16 | AUAAAAGGGCCAGAACUACAGAAAUGUAGUUGACGAGGAGGAGGUUUAUCGAAUCUUCGGCGGAUGCCUCAAAA [C8G U55C C71A] | < 1e-05 s⁻¹
17 | AUAAAAGGGCCAGAACUACAGAAAUGUAGUUGACGAGUAGGAGGUUUAUCGAAUUUUCGGCGGAUGCAUCCAAA [C8G G38U C68A] | < 1e-05 s⁻¹
18 | AUAAAAGUGCUAGAACUACAGAAAUGUAGUUGACGAGGAGGAGGUUUAUCGAAUAUUCGGCAGAUGCCUCCAAA [C8U C11U U55A G62A] | < 1e-05 s⁻¹
19 | AUAAAAGGGCCAGAACUACAGAAAUGUAGUUUACGAGGAAGAGCUUUAUCGAAUUUUUGGCGGAUGCCUCCAAA [C8G G32U G40A G44C C58U] | < 1e-05 s⁻¹
20 | AUAAAAGGGCUAGAUCUACAGAAAUGUACUUGACGAGGAGUAGGUUUAUCGAAUUUUCGGCGGAUGCCUCCAAA [C8G C11U A15U G29C G41U] | < 1e-05 s⁻¹
21 | AUAAAAGUGCCAGAACUACAGAAAUGUAGUUGACGAGGUGGAGGUUUAUCGAAUUUUCCGCGGAUGCCUCCAAA [C8U A39U G59C] | < 1e-05 s⁻¹
22 | AUAAAAGGGCCAGAACUACAGAAAUGUAGUUGACGAGGAGGAGGUUUAUCGAAUUUUCUGCGGAUUCCUCCAAA [C8G G59U G66U] | < 1e-05 s⁻¹
23 | AUAAAAGAGCCAGAACUACAGAAAUGUAGUUGACGAGGAGGAGGUUUAUCGAAUUUGCGGCGGAUGCCUCCAAA [C8A U57G] | < 1e-05 s⁻¹
24 | AUAAAAGGGCCAGAACUACAGAAAUGUAGUUGACGAGGAGGAGGUUUAUCGAAUUUUAGGCGGAGGCCUCAAAA [C8G C58A U65G C71A] | < 1e-05 s⁻¹

Variants of: B1
Test: self-cleavage kobs at 2500 uM GlcN6P; higher = faster cleavage; RNA array
Settings: with glucosamine-6-phosphate
How it was run: as §1

Row | Variant | self-cleavage kobs at 2500 uM GlcN6P
25 | AUAAAAGUGCCAGAAGUACAGAAAUGUAGUUGACGAGGAGGAGGUUUAUCGUAUUUUCGGCGGAGACCUCCAAA [C8U C16G A52U U65G G66A] | < 1e-05 s⁻¹
26 | AUAAAAGGGCCAGAACUACAGAAAUGUAGUUGACGAGGAGGAAGUUUAUCGAAUUUUCGGCGGAUGCCUCCAAA [C8G G43A] | < 1e-05 s⁻¹
27 | AUAAAAGGGCCAGAACUACAGAAAUGUAGUUGACGAGGAGGAGGUUUAUCGAAUUUGCAGCGGAUGCCUCCAAA [C8G U57G G59A] | < 1e-05 s⁻¹
28 | AUAAAAGGGCCAUAACUACAGAAAUGUAGUUGACGAGGAGGAGGUUUAUCGAAUCUUUGGCGGAUGCCUCCAAA [C8G G13U U55C C58U] | < 1e-05 s⁻¹
29 | AUAAAAGUGCCAGCACUACAGAAAUGUAGUUAACGAGGAGGAGGUUUAUCGAAUUUUCGGCGGAUGCCUCCAAA [C8U A14C G32A] | < 1e-05 s⁻¹
30 | AUAAAAGGGUCAGAACUACAGAAAUGUAGUUGACGAGGAGGAGGUUUUUCGAAUUUUCGGCGGAUGCCUCCAAA [C8G C10U A48U] | < 1e-05 s⁻¹
31 | AUAAAAGUGCCAGGACUACAGAAAUGUAGUUGACGAGGGGGAGGUUUAUCGAUGUUUCGGCGAAUGCCUCCAAA [C8U A14G A39G A53U U54G G63A] | < 1e-05 s⁻¹
32 | AUAAAAGAGCCAGAACUACAGAAAUGUAGUUGACGAGGAGGAGGUUUAUCGAAUGUUCGGCGGUUGCCUCCAAA [C8A U55G A64U] | < 1e-05 s⁻¹
33 | AUAAAAGUGCCAGACCUACAGAAAUGUAGUUUACGAGGAGGAGGUUUAUCGAAUUUUCGGCGGAUGCCUCCAAA [C8U A15C G32U] | < 1e-05 s⁻¹
34 | AUAAAAGGGCCAGAACUACAGAAAUGUAGUUGACGAGGAGGAGGUUUAUCGAAUCUUCGGCGGAUGCCUCAAAA [C8G U55C C71A] | < 1e-05 s⁻¹
35 | AUAAAAGUGCUAGAACUACAGAAAUGUAGUUGACGAGGAGGAGGUUUAUCGAAUAUUCGGCAGAUGCCUCCAAA [C8U C11U U55A G62A] | < 1e-05 s⁻¹
36 | AUAAAAGGGCCAGAACUACAGAAAUGUAGUUUACGAGGAAGAGCUUUAUCGAAUUUUUGGCGGAUGCCUCCAAA [C8G G32U G40A G44C C58U] | < 1e-05 s⁻¹
37 | AUAAAAGAGCCAGAACUACAGAAAUGUAGUUGACGAGGAGGAGGUUUAUCGAAUUUGCGGCGGAUGCCUCCAAA [C8A U57G] | < 1e-05 s⁻¹

Variants of: B1
Test: self-cleavage kobs at 10000 uM GlcN6P; higher = faster cleavage; RNA array
Settings: with glucosamine-6-phosphate
How it was run: as §1

Row | Variant | self-cleavage kobs at 10000 uM GlcN6P
38 | AUAAAAGGGCUAGAUCUACAGAAAUGUACUUGACGAGGAGUAGGUUUAUCGAAUUUUCGGCGGAUGCCUCCAAA [C8G C11U A15U G29C G41U] | < 1e-05 s⁻¹
